{
  "source": "paper PMC4641155",
  "about": "(Molecular Imaging and Biology, 2015)",
  "key": {"[1]": {"assay": "Human residence time estimates scaled from mouse μSPECT time-activity curves", "type": "in vivo, human (extrapolated from mouse)", "conditions": "scaled from mouse μSPECT TACs, n = 3 non-purified, n = 6 purified", "from_the_text": "(§1) Volumes of interest (VOIs) were manually drawn on the μSPECT-CT images using PMOD v3.3 (PMOD Technologies, Switzerland) to delineate the regions with distinct SPECT time-activity pattern: heart, liver, kidney, and urinary bladder, as well as whole-body. The average organ activity per volume was obtained from the co-registered μSPECT images and the non-decay corrected time activity curves (TACs) were extracted for each target organ. In order to relate the scanner units (counts/pixel) to radioactivity concentration (kilobecquerel per cubic centimeter), a scanner calibration factor was estimated by scanning a syringe with a known concentration of Tc-99m. TACs for each organ, as well as the TACs representing the activity in the remainder of the body, were fitted by a single exponential decaying function, which was then integrated to obtain the total number of disintegrations (residence time) within these regions. In order to predict human dosimetry using animal data, interspecies extrapolation is necessary. Thus, the residence times (R) were scaled to human values according to the following formula [21]: R/gorganmouse⋅kgTBweightmouse⋅gorgan/kgTBweighthuman=Rhuman\n(§2) The human organ and body weight values from the standard adult male phantom taken into account are implemented in the internal dosimetry software (OLINDA/EXM v1.1) and are assumed to be constant across individuals. The body weight and organ masses for the individual mice were obtained post-mortem. For the bladder model, the fraction leaving the body via the urinary excretion system (f) and the biological half-life of the excretion (t1/2) were estimated by fitting a first-order linear system to the sum of activity in the bladder and the activity that had been excreted (calculated as total injected activity minus total body activity): y=f1−expln2/t1/2t"}, "[2]": {"assay": "Projected human organ absorbed doses and effective dose (OLINDA/EXM)", "type": "in vivo, human (extrapolated from mouse)", "conditions": "OLINDA/EXM v1.1, adult male model, 2-h voiding, from mouse data", "from_the_text": "as §1, §2\nProjected human absorbed doses to various organs and the effective doses (ED) were then computed using the aforementioned dosimetry software (weighting factors from International Commission on Radiological Protection 60), with the human residence times as input, using the standard adult male model and the dynamic voiding bladder model (2-h voiding interval)."}, "[3]": {"assay": "Bladder model fit of urinary excretion", "type": "in vivo, CD1−/− nude female mice", "conditions": "first-order fit of bladder plus excreted activity", "from_the_text": "as §2"}, "COLO205 tumors [4]": {"tested_on": "COLO205 tumors", "assay": "In vivo tumor uptake by μSPECT-CT in COLO205 tumor-bearing mice", "parameters": "species or system nude mice", "conditions": "for mean tumor uptake: μSPECT 4 h p.i., 37 MBq i.v., mean ± SEM, n = 6 tumors", "method": "(§3) Irinotecan was administered by intra-peritoneal (i.p.) injection (80 mg/kg) three times in 1 week every other day (n = 3)."}, "COLO205 tumors [5]": {"tested_on": "COLO205 tumors", "assay": "Ex vivo tumor uptake by γ-counting in COLO205 tumor-bearing mice", "parameters": "species or system nude mice", "conditions": "mean ± SEM", "method": "as §3"}, "[6]": {"assay": "In vivo plasma metabolite analysis by radio-HPLC", "parameters": "species or system CD1−/− nude mice", "conditions": "mouse plasma 4 and 24 h p.i., 37 MBq purified tracer i.v., acetonitrile deproteination, radio-RP-HPLC with γ-counted fractions; n = 3 per time point", "method": "In vivo metabolite analysis\nFour and 24 h p.i. (n=3 for each […]\ntime point) mixed blood was drawn by cardiac puncture, and the mice were euthanized by cervical dislocation. The blood was collected in EDTA-coated tubes and the plasma fraction was obtained by centrifugation (4000 g for 7 min). The plasma (200 µl) was mixed with an equal amount of cold acetonitrile to enable sample deproteination and counted for radioactivity using an automatic γ-counter. After vortexing and centrifuging for 4 min at 4000 g, the supernatant was separated from the pellet and both fractions were γ-counted to calculate the amount of radioactivity extracted in acetonitrile. To study radiometabolite formation, 100 µl of the supernatant were analyzed by RP-HPLC using the method described before. Eluate fractions of 0.5 min were collected and counted for radioactivity in the γ-counter.\nAdult normal CD1-/- nude mice were used to examine the metabolic stability of […]\nAccording to the radio-HPLC analysis of the plasma samples, the majority of the injected radiotracer remains unchanged after 4 and 24 h p.i. (Figs. 1b and c, respectively).\nOne minor polar impurity was detected eluting at 3 min. As it was also visible in the reference […]\nRadiometabolites eluting with a longer retention time (18.5 – 30 min) could also be detected."}},
  "note": "Values joined by “and” are separate entries in the source; they are usually repeats but may differ in a detail not shown here. Equal entries are not always repeated.",
  "data": [
    {"smiles": "CC(C)[C@@H]1NC(=O)[C@H](Cc2ccccc2)NC(=O)[C@@H]2NC(=O)[C@H](Cc3ccccc3)NC(=O)[C@@H]3CCCN3C(=O)CNC(=O)[C@H](Cc3ccccc3)NC(=O)[C@@H]3CNCCCC[C@@H](C(=O)O)NC(=O)[C@@H]4NC(=O)[C@H](CC(N)=O)NC(=O)CNC(=O)[C@H]([C@@H](O)C(=O)O)NC(=O)[C@H](CSC[C@@H](NC(=O)[C@H](CCC(N)=O)NC(=O)[C@H](CCCCNC(=O)c5ccc(NN)nc5)NC(=O)[C@@H](N)CS[C@H]4C)C(=O)N[C@@H](CS[C@H]2C)C(=O)N3)NC1=O", "note": "[purified [^99mTc]duramycin] [metal not drawn]", "values": [
      {"measurement": "Mean human residence time, heart contents", "setting": "[1]", "result": 0.027, "unit": "h"},
      {"measurement": "Mean human residence time, kidneys", "setting": "[1]", "result": 0.0549, "unit": "h"},
      {"measurement": "Mean human residence time, liver", "setting": "[1]", "result": 0.075, "unit": "h"},
      {"measurement": "Mean human residence time, remaining body", "setting": "[1]", "result": 2.54, "unit": "h"},
      {"measurement": "Mean human residence time, urinary bladder contents", "setting": "[1]", "result": "6.43 × 10 ^−1 h"},
      {"measurement": "Mean human absorbed dose, total body", "setting": "[2]", "result": "1.62 × 10^−3 mGy/MBq"},
      {"measurement": "Mean human organ absorbed dose, LLI wall", "setting": "[2]", "result": "2.97 × 10^−3 mGy/MBq"},
      {"measurement": "Mean human organ absorbed dose, ULI wall", "setting": "[2]", "result": "2.03 × 10^−3 mGy/MBq"},
      {"measurement": "Mean human organ absorbed dose, adrenals", "setting": "[2]", "result": "1.74 × 10^−3 mGy/MBq"},
      {"measurement": "Mean human organ absorbed dose, brain", "setting": "[2]", "result": "1.14 × 10^−3 mGy/MBq"},
      {"measurement": "Mean human organ absorbed dose, breasts", "setting": "[2]", "result": "9.59 × 10^−4 mGy/MBq"},
      {"measurement": "Mean human organ absorbed dose, gallbladder wall", "setting": "[2]", "result": "1.84 × 10^−3 mGy/MBq"},
      {"measurement": "Mean human organ absorbed dose, heart wall", "setting": "[2]", "result": "1.91 × 10^−3 mGy/MBq"},
      {"measurement": "Mean human organ absorbed dose, kidneys", "setting": "[2]", "result": "3.63 × 10^−3 mGy/MBq"},
      {"measurement": "Mean human organ absorbed dose, liver", "setting": "[2]", "result": "1.64 × 10^−3 mGy/MBq"},
      {"measurement": "Mean human organ absorbed dose, lungs", "setting": "[2]", "result": "1.36 × 10^−3 mGy/MBq"},
      {"measurement": "Mean human organ absorbed dose, muscle", "setting": "[2]", "result": "1.55 × 10^−3 mGy/MBq"},
      {"measurement": "Mean human organ absorbed dose, osteogenic cells", "setting": "[2]", "result": "3.92 × 10^−3 mGy/MBq"},
      {"measurement": "Mean human organ absorbed dose, ovaries", "setting": "[2]", "result": "2.96 × 10^−3 mGy/MBq"},
      {"measurement": "Mean human organ absorbed dose, pancreas", "setting": "[2]", "result": "1.82 × 10^−3 mGy/MBq"},
      {"measurement": "Mean human organ absorbed dose, red marrow", "setting": "[2]", "result": "1.48 × 10^−3 mGy/MBq"},
      {"measurement": "Mean human organ absorbed dose, skin", "setting": "[2]", "result": "9.56 × 10^−4 mGy/MBq"},
      {"measurement": "Mean human organ absorbed dose, small intestine", "setting": "[2]", "result": "2.22 × 10^−3 mGy/MBq"},
      {"measurement": "Mean human organ absorbed dose, spleen", "setting": "[2]", "result": "1.59 × 10^−3 mGy/MBq"},
      {"measurement": "Mean human organ absorbed dose, stomach wall", "setting": "[2]", "result": "1.59 × 10^−3 mGy/MBq"},
      {"measurement": "Mean human organ absorbed dose, testes", "setting": "[2]", "result": "2.07 × 10^−3 mGy/MBq"},
      {"measurement": "Mean human organ absorbed dose, thymus", "setting": "[2]", "result": "1.39 × 10^−3 mGy/MBq"},
      {"measurement": "Mean human organ absorbed dose, thyroid", "setting": "[2]", "result": "1.38 × 10^−3 mGy/MBq"},
      {"measurement": "Mean human organ absorbed dose, urinary bladder wall", "setting": "[2]", "result": "2.70 × 10^−2 ± 3.05 × 10^−3 mGy/MBq and 2.70 × 10 ^−2 mGy/MBq"},
      {"measurement": "Mean human organ absorbed dose, uterus", "setting": "[2]", "result": "4.57 × 10^−3 ± 3.42 × 10^−4 mGy/MBq and 4.57 × 10 ^−3 mGy/MBq"},
      {"measurement": "f, mean fraction leaving the body via the urinary excretion system", "setting": "[3]", "result": 0.697},
      {"measurement": "t 1/2, mean biological half-life of the excretion", "setting": "[3]", "result": 2.151, "unit": "h"},
      {"measurement": "tumor-to-blood uptake ratio, irinotecan-treated over vehicle-treated mice", "setting": "COLO205 tumors [4]; 4 h p.i.", "result": 6, "unit": "fold"},
      {"measurement": "tumor-to-muscle uptake ratio, irinotecan-treated over vehicle-treated mice", "setting": "COLO205 tumors [4]; 4 h p.i.", "result": 2, "unit": "fold"},
      {"measurement": "mean tumor uptake", "setting": "COLO205 tumors [4]; irinotecan-treated group, 24 h after last dose", "result": "148.50 ± 25.42", "unit": "%I.D./g/kg"},
      {"measurement": "mean tumor uptake", "setting": "COLO205 tumors [4]; vehicle-treated group", "result": "40.58 ± 2.81", "unit": "%I.D./g/kg"},
      {"measurement": "tumor uptake by γ-counting", "setting": "COLO205 tumors [5]; control (vehicle) tumors", "result": "0.74 ± 0.04", "unit": "%I.D./g"},
      {"measurement": "tumor uptake by γ-counting", "setting": "COLO205 tumors [5]; irinotecan-treated tumors", "result": "1.65 ± 0.13", "unit": "%I.D./g"},
      {"measurement": "in vivo plasma (metabolic) stability", "setting": "[6]", "result": "unchanged"}
    ]}
  ]
}
